Reference: patent publication US20170298119A1
Substitutions are numbered along the chain they refer to.

B1: ZC6 (antibody, V domains shown)
VH: QVQLVQSGAEVKKPGASVKVSCKASGYSFTTYGISWVRQAPGQGLEWMGVIYPRSGNTYYAQKLQGRVTMTTDTSTSTAYMELRSLRSDDTAVYYCARENYGSVYWGQGTLVTVSS
VL: DIQMTQSPSSLSASVGDRVTITCKASQSVGTAVAWYQQKPGKAPKLLIYSASNRYTGVPSRFSGSGSGTDFTLTISSLQPEDFATYFCQQFSNYPFTFGGGTKVEIK
B2: ZC1 (antibody, V domains shown)
VH: QVQLVQSGAEVKKPGASVKVSCKASGYTFTSYGISWVRQATGQGLEWMGVIYPRSGNTYYAEKFRGRVTMTADKSISTAYMELSSLRSEDTAVYYCARENYGSVYWGQGTLVTVSS
VL: EIVMTQSPATLSVSPGERATLSCRASQSVGTAVAWYQQKPGQAPRLLIYSASNRYTGIPARFSGSGSGTEFTLTISSLQSEDFADYFCQQFYNYPFTFGGGTKVEIK
B3: ZC9 (antibody, V domains shown)
VH: B1 VH with S28T, T31S
VL: B2 VL
B4: ZC5 (antibody, V domains shown)
VH: B1 VH
VL: B2 VL

Molecular target: ZIKV strain MR766 (E protein on infectious virus) (Zika virus strain MR766) (UniProt Q32ZE1)
Assay: cell-based or functional assay

Row | Binder | in vitro neutralization EC50 (foci counted on Vero cells)
1 | B1 | < 20 ng/mL
2 | B2 | < 20 ng/mL
3 | B3 | < 20 ng/mL
4 | B4 | < 20 ng/mL
